The target in test [1] is C3G-AAPA (human), Q13905. In words: ITC; single-PRM mutants of C3G in the cell titrated with full-length CrkL or CrkL-SH3N; 25 °C; 1:1 model in SEDPHAT; N is the competent fraction of C3G.
Test [2] concerns the target C3G-AAPA (human), Q13905.
Test [3] deals with Src-phosphorylated C3G-AAAP (pC3G-AAAP) (human), Q13905.
Test [4] addresses Src-phosphorylated C3G-AAPA (pC3G-AAPA) (human), Q13905.
In test [5] the target is Src-phosphorylated C3G-AAPP (pC3G-AAPP) (human), Q13905.
Another test deals with C3G-AAAP (human), Q13905. In words: ITC; single-PRM mutants of C3G in the cell titrated with full-length CrkL or CrkL-SH3N; 25 °C; 1:1 model in SEDPHAT; N is the competent fraction of C3G. (ITC needs no label: the signal is the heat of the interaction.)
In test [6] the target is GST-CrkL-SH3N. Nature of the test: pull-down. The conditions noted are these: chain shown with the change; PD with GST-CrkL-SH3N, C3G detected by western blot (WB:C3G); parent: 1.0. Background: A western blot detects proteins with antibodies after separation by electrophoresis.
Test [7] concerns the target GST-CrkL-SH3N. In words: pull-down. The conditions noted are these: chain shown with the change, PD with GST-CrkL-SH3N, C3G detected by western blot (WB:C3G), parent: 1.0.

The term Kd denotes the constant that tells how readily two partners part at equilibrium. As a reminder, the stoichiometry N is the number of molecules, sites or subunits per partner or assembly.

Changes are numbered by the printed parent chain. Numbers in names are those of the source.

B1: CrkL-SH3N (residues 125-182), P46109 125-182 (domain or fragment)
chain: LEYVRTLYDFPGNDAEDLPFKKGEILVIIEKPEEQWWSARNKDGRVGMIPVPYVEKLV
In the test with C3G-AAPA (human), Q13905 [1], B1 yielded a Kd of 3.5 µM and a stoichiometry N of 0.2.

B2: CrkL, full-length (human), P46109 1-303 (natural protein)
chain: MSSARFDSSDRSAWYMGPVSRQEAQTRLQGQRHGMFLVRDSSTCPGDYVLSVSENSRVSHYIINSLPNRRFKIGDQEFDHLPALLEFYKIHYLDTTTLIEPAPRYPSPPMGSVSAPNLPTAEDNLEYVRTLYDFPGNDAEDLPFKKGEILVIIEKPEEQWWSARNKDGRVGMIPVPYVEKLVRSSPHGKHGNRNSNSYGIPEPAHAYAQPQTTTPLPAVSGSPGAAITPLPSTQNGPVFAKAIQKRVPCAYDKTALALEVGDIVKVTRMNINGQWEGEVNGRKGLFPFTHVKIFDPQNPDENE
Consider B2, for which, in the test with C3G-AAPA (human), Q13905 [2], the AC50 of the dose-response activation of the GEF activity of C3G (1 µM) on Rap1b:mant-dGDP was 28.1 µM and the kmax of the dose-response activation of the GEF activity of C3G (1 µM) on Rap1b:mant-dGDP came to 9100 M⁻¹ s⁻¹. In addition, in the test with C3G-AAPP (human), Q13905, the AC50 of the dose-response activation of the GEF activity of C3G (1 µM) on Rap1b:mant-dGDP stood at 23.7 µM and the kmax of the dose-response activation of the GEF activity of C3G (1 µM) on Rap1b:mant-dGDP was determined as 13600 M⁻¹ s⁻¹. Also, in [3], the AC50 of the dose-response activation of the GEF activity of pC3G (0.2 µM) on Rap1b:mant-dGDP; the text says that pC3G-AAAP was not stimulated by CrkL came out at 0.6 µM and the kmax of the dose-response activation of the GEF activity of pC3G (0.2 µM) on Rap1b:mant-dGDP; the text says that pC3G-AAAP was not stimulated by CrkL was 0.0045 s^-1 µM^-1. In [4], this molecule registered an AC50 of the dose-response activation of the GEF activity of pC3G (0.2 µM) on Rap1b:mant-dGDP of 1.3 µM and a kmax of the dose-response activation of the GEF activity of pC3G (0.2 µM) on Rap1b:mant-dGDP of 0.0269 s^-1 µM^-1. For the same molecule, in [5], the AC50 of the dose-response activation of the GEF activity of pC3G (0.2 µM) on Rap1b:mant-dGDP amounted to 2.2 µM and the kmax of the dose-response activation of the GEF activity of pC3G (0.2 µM) on Rap1b:mant-dGDP is 0.0357 s^-1 µM^-1. For the same molecule, in the test with C3G-AAAP (human), Q13905, the Kd was determined as 2 µM and the stoichiometry N was found to be 0.55. Further, in the test with C3G-AAPA (human), Q13905 [1], the Kd amounted to 2 µM and the stoichiometry N was 0.13.

B3: C3G (full-length, residues 4-1077), Q13905-1 P283A; P284A; L286A; P287A; K289A; P453A; P454A; L456A; P457A; K459A; P540A; P541A; L543A; P544A; K546A (protein)
chain: DSQRSHLSSFTMKLMDKFHSPKIKRTPSKKGKPAEVSVKIPEKPVNKEATDRFLPEGYPLPLDLEQQAVEFMSTSAVASRSQRQKNLSWLEEKEKEVVSALRYFKTIVDKMAIDKKVLEMLPGSASKVLEAILPLVQNDPRIQHSSALSSCYSRVYQSLANLIRWSDQVMLEGVNSEDKEMVTTVKGVIKAVLDGVKELVRLTIEKQGRPSPTSPVKPSSPASKPDGPAELPLTDREVEILNKTTGMSQSTELLPDATDEEVAPPKPPLPGIRVVDNSPAAAAAPAKRQSAPSPTRVAVVAPMSRATSGSSLPVGINRQDFDVDCYAQRRLSGGSHSYGGESPRLSPCSSIGKLSKSDEQLSSLDRDSGQCSRNTSCETLDHYDPDYEFLQQDLSNADQIPQQTAWNLSPLPESLGESGSPFLGPPFQLPLGGHPQPDGPLAPGQQTDTAAAAAEAKRRSAASQTADGSGCRVSYERHPSQYDNISGEDLQSTAPIPSVPYAPFAAILPFQHGGSSAPVEFVGDFTAPESTGDPEKAAPAAEAKNKHMLAYMQLLEDYSEPQPSMFYQTPQNEHIYQQKNKLLMEVYGFSDSFSGVDSVQELAPPPALPPKQRQLEPPAGKDGHPRDPSAVSGVPGKDSRDGSERAPKSPDALESAQSEEEVDELSLIDHNEIMSRLTLKQEGDDGPDVRGGSGDILLVHATETDRKDLVLYCEAFLTTYRTFISPEELIKKLQYRYEKFSPFADTFKKRVSKNTFFVLVRVVDELCLVELTEEILKLLMELVFRLVCNGELSLARVLRKNILDKVDQKKLLRCATSSQPLAARGVAARPGTLHDFHSHEIAEQLTLLDAELFYKIEIPEVLLWAKEQNEEKSPNLTQFTEHFNNMSYWVRSIIMLQEKAQDRERLLLKFIKIMKHLRKLNNFNSYLAILSALDSAPIRRLEWQKQTSEGLAEYCTLIDSSSSFRAYRAALSEVEPPCIPYLGLILQDLTFVHLGNPDYIDGKVNFSKRWQQFNILDSMRCFQQAHYDMRRNDDIINFFNDFSDHLAEEALWELSLKIKPRNITRRKTDREEKT
In the case of B3, the ratio to parent with GST-CrkL-SH3N [6] turned out to be 0.3; with GST-CrkL-SH3N [7] (C3G-AAAP phosphorylated by Src (phospho AAAP)) it was 0.4; with GST-CrkL-SH3N [7], 0.4.

B4: C3G (full-length, residues 4-1077), Q13905-1 P283A; P284A; L286A; P287A; K289A; P540A; P541A; L543A; P544A; K546A; P608A; P609A; L611A; P612A; K614A (protein)
chain: B3 chain with A450P, A451P, A453L, A454P, A456K, P605A, P606A, L608A, P609A, K611A
Take B4: the ratio to parent in the test with GST-CrkL-SH3N [6] came out at 0.4.

B5: C3G (full-length, residues 4-1077), Q13905-1 P283A; P284A; L286A; P287A; K289A; P453A; P454A; L456A; P457A; K459A; P540A; P541A; L543A; P544A; K546A; Y554H (protein)
chain: B3 chain with Y551H
As for B5, in the test with GST-CrkL-SH3N [7], the ratio to parent is 0.4.

B6: C3G (full-length, residues 4-1077), Q13905-1 P283A; P284A; L286A; P287A; K289A; P453A; P454A; L456A; P457A; K459A; P608A; P609A; L611A; P612A; K614A (protein)
chain: B3 chain with A537P, A538P, A540L, A541P, A543K, P605A, P606A, L608A, P609A, K611A
Turning to B6, the ratio to parent in the test with GST-CrkL-SH3N [7] (C3G-AAPA phosphorylated by Src (phospho AAPA)) is 0.3.

The values above are taken from PMC9896810.
